Measured values as given in paper doi:10.1101/2025.11.17.685403.
Numbering of substitutions follows the chain as printed. Where two headings read alike, the source gives them in different places.

What was measured:
Assay in all cases: fluorescence polarization
[1] = target: T1, RFS1 (cShu subunit);RIP1 (cShu subunit);SWS1 (cShu subunit) (Caenorhabditis elegans;Caenorhabditis …, UniProt P34348;Q21621;Q8MYM5 1-245;1-209;1-191, ||)
T1 sequence 1: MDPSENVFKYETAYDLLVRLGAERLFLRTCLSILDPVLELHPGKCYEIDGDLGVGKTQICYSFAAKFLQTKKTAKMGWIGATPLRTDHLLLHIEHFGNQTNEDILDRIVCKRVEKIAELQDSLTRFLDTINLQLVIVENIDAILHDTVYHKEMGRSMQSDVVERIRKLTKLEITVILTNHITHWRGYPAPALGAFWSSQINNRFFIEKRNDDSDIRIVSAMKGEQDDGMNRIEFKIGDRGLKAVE
T1 sequence 2: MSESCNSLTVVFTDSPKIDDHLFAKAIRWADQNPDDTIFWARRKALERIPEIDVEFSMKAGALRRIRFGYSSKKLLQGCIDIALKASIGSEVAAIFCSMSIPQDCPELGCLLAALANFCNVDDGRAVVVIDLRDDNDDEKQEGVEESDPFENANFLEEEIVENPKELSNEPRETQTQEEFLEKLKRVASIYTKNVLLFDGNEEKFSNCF
T1 sequence 3: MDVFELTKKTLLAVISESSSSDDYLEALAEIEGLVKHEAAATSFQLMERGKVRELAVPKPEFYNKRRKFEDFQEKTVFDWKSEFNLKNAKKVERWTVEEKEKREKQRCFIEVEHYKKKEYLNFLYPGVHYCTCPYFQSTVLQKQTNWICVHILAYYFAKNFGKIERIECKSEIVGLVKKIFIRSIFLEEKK

[2] = target: T1, RFS1 (cShu subunit);RIP1 (cShu …); remark: listed apart in the source
[3] = target: T1, RFS1 (cShu subunit);RIP1 (cShu …); remark: listed apart in the source
[4] = target: T2, RFS1 E138A (Walker B);RIP1 (cShu subunit);SWS1 (cShu subunit) (Caenorhabditis elegans;Caenorhabditis …, UniProt P34348;Q21621;Q8MYM5 1-245;1-209;1-191, E138A||)
T2 sequence 1: T1 sequence 1 with E138A
T2 sequence 2: T1 sequence 2
T2 sequence 3: T1 sequence 3

[5] = target: T3, RFS1 K56A (Walker A);RIP1 (cShu subunit);SWS1 (cShu subunit) (Caenorhabditis elegans;Caenorhabditis …, UniProt P34348;Q21621;Q8MYM5 1-245;1-209;1-191, K56A||)
T3 sequence 1: T1 sequence 1 with K56A
T3 sequence 2: T1 sequence 2
T3 sequence 3: T1 sequence 3

[6] = target: T1, RFS1 (cShu subunit);RIP1 (cShu …); remark: listed apart in the source
[7] = target: T2, RFS1 E138A (Walker B);RIP1 (cShu …); remark: listed apart in the source
[8] = target: T3, RFS1 K56A (Walker A);RIP1 (cShu …); remark: listed apart in the source
[9] = target: T2, RFS1 E138A (Walker B);RIP1 (cShu …); remark: listed apart in the source
[10] = target: T3, RFS1 K56A (Walker A);RIP1 (cShu …); remark: listed apart in the source

B1: 3'-overhang (5 nt) (mixed)
DNA 1: ACTGCCCTTACAGCACAGCGGTTTTT
DNA 2: CCGCTGTGCTGTAAGGGCAGT
binding result [1]: no binding

B2: 5'-overhang (5 nt) (mixed)
DNA 1: ACTGCCCTTACAGCACAGCGG
DNA 2: TTTTTCCGCTGTGCTGTAAGGGCAGT
binding result [1]: no binding

ACTGCCCTTACAGCACAGCGGTTTTTTTTTT (ssDNA) [ss31]
Kd [1]: 3.2 ± 0.3 µM

B3: Fork (10 nt) (mixed)
DNA 1: ACTGCCCTTACAGCACAGCGGTTTTTTTTTT
DNA 2: TTTTTTTTTTCCGCTGTGCTGTAAGGGCAGT
binding result [1]: no binding

B4: 3'-overhang (10 nt) (mixed)
DNA 1: B3 DNA 1
DNA 2: CCGCTGTGCTGTAAGGGCAGT
binding result [1]: no binding

B5: ds26 (dsDNA)
DNA 1: ACTGCCCTTACAGCACAGCGGTTTTT
DNA 2: AAAAACCGCTGTGCTGTAAGGGCAGT
binding result [1]: no binding

B6: 5'-overhang (10 nt) (mixed)
DNA 1: ACTGCCCTTACAGCACAGCGG
DNA 2: B3 DNA 2
binding result [1]: no binding

ACTTACAGCACAGCGGTTTTT (ssDNA) [ss21]
binding result [1]: no binding

B7: ds21 (dsDNA)
DNA 1: ACTTACAGCACAGCGGTTTTT
DNA 2: AAAAACCGCTGTGCTGTAAGT
binding result [1]: no binding

B8: 3'-overhang (20 nt) (mixed)
DNA 1: CTTGACAAGCTTGCGCACT
DNA 2: AGTGCGCAAGCTTGTCAAGGCACTTTTTTTTTTTTTTTT
binding result [2]: no binding

B9: Fork (5 nt) (mixed)
DNA 1: ACTGCCCTTACAGCACAGCGGTTTTT
DNA 2: TTTTTCCGCTGTGCTGTAAGGGCAGT
binding result [1]: no binding

B10: 5'-overhang (20 nt) (mixed)
DNA 1: TTTTTTTTTTTTTTTTTTTTCTTGACAAGCTTGCGCACT
DNA 2: AGTGCGCAAGCTTGTCAAG
Kd [3]: 3800 ± 300 nM
Kd [4]: 1200 ± 100 nM
Kd [5]: 4.7 ± 0.2 µM
Kd [6]: 695 ± 3 nM
Kd [7]: 760 ± 40 nM
Kd [8]: 3900 ± 400 nM
Kd [2]: 4200 ± 500 nM
Kd [9]: 3900 ± 100 nM
Kd [10]: 4.5 ± 0.3 µM

B11: Fork (20 nt) (mixed)
DNA 1: B10 DNA 1
DNA 2: B8 DNA 2
Kd [3]: 500 ± 20 nM
Kd [4]: 380 ± 30 nM
Kd [5]: 2.5 ± 0.1 µM
Kd [6]: 210 ± 20 nM
Kd [7]: 140 ± 10 nM
Kd [8]: 2680 ± 80 nM
Kd [2]: 2800 ± 300 nM
Kd [9]: 1900 ± 200 nM
Kd [10]: 2.5 ± 0.3 µM

B12: ds39 (dsDNA)
DNA 1: B10 DNA 1
DNA 2: AGTGCGCAAGCTTGTCAAGAAAAAAAAAAAAAAAAAAAA
binding result [2]: no binding
binding result [9]: no binding
binding result [10]: no binding

TTTTTTTTTTTTTTTTTTTTCTTGACAAGCTTGCGCACT (ssDNA) [ss39]
Kd [3]: 2900 ± 300 nM
Kd [4]: 2200 ± 100 nM
Kd [5]: 3.3 ± 0.1 µM
Kd [6]: 1000 ± 100 nM
Kd [7]: 1000 ± 20 nM
Kd [8]: 3000 ± 100 nM
Kd [2]: 2900 ± 100 nM
Kd [9]: 2700 ± 200 nM
Kd [10]: 3.3 ± 0.2 µM

ACTGCCCTTACAGCACAGCGGTTTTT (ssDNA) [ss26]
Kd [1]: 4.2 ± 0.4 µM
